Experimental findings from patent US10494417B2, “Peptide inhibitors of BCR-ABL oligomerization” (University of Utah Research Foundation, priority 2014, dated 2019) are described below.

Experiment [1] concerns CD34+ cells from newly diagnosed CML patients. The experiment can be described thus: Proliferation of lentivirus-infected CD34+ cells from newly diagnosed CML patients. Type of experiment: cell-based, human. Particulars: for cell growth, in words: lentiviral CCmut3 compared with EV cells treated with 2.5 μM imatinib. On the procedure:
Mononuclear cells (MNCs) were separated from the peripheral blood of patients with newly diagnosed or therapy-resistant CML with a documented T315I mutation, using Ficoll (Nycomed, Oslo, Norway). Isolation of the CD34^+ fraction was done on an autoMACS Pro (Miltenyi Biotech). CD34^+ progenitors were maintained at 1×10^6 cells/mL in RPMI1640 containing 20% FBS and 5 μL/mL StemSpan CC100 (Stem Cell Technologies, Vancouver, BC, Canada). Cells were infected with lentivirus at a multiplicity of infection (MOI) of 5 for each construct at 24 and 48 hours following harvest (fresh cells) or thaw (frozen cells). Cells were sorted on a BD FACSAria cytometer after 72 h, and GFP-positive cells were returned to culture medium for future experiments. All patients gave their informed consent in accordance with the Declaration of Helsinki, and all studies with human specimens were approved by The University of Utah Institutional Review Board (IRB).
Cell proliferation was assessed using the CellTiter 96® AQueous One Solution Cell Proliferation Assay (MTS assay, Promega) according to manufacturer instructions. […] In some experiments, cell proliferation was assessed using a Neubauer chamber and trypan blue dye exclusion.
Mononuclear cells (MNCs) from peripheral blood of patients with newly diagnosed or TKI-resistant CML were separated by Ficoll (Nycomed, Oslo, Norway), and the CD34+ fraction was isolated using an autoMACS Pro Separator (Miltenyi Biotech, San Diego, Calif., USA). Purity was determined to be >90% by flow cytometric analysis using a Guava 6HT flow cytometer (Millipore, Billerica, Mass., USA). […]
293FT cells (Life Technologies, Grand Island, N.Y., USA) were grown in DMEM with 10% FBS, 100 U/ml penicillin-streptomycin, 2 mM L-glutamine, 0.1 mM MEM-non-essential amino acids, and 1 mM sodium pyruvate (Life Technologies, Grand Island, N.Y., USA). […] Lentiviral titers were determined. […]
Cell proliferation was assessed using a […] viability assay (MTS assay) utilizing CellTiter 96® AQueous One Solution Cell Proliferation Assay (Promega) according to manufacturer instructions. […]

The test system is the same in experiment [2]. The experiment can be described thus: Colony forming assay of CD34+ cells from newly diagnosed CML patients. Type of experiment: cell-based, human. To be noted: for colony formation, in words: day 14 CFU-GM, lentiviral CCmut3 or 2.5 μM imatinib vs EV. On the procedure: Primary cells were seeded in Methocult H4230 (Stem Cell Technologies) as described previously (Fleischman, A. G., et al. (2011). Blood 118, 6392-6398). Briefly, lentivirus-infected (GFP^+) cells were isolated by FACS and resuspended in RPMI1640. Cells were plated in Methocult H4230 at 1,000 cells/mL supplemented with 1× StemSpan CC100 cytokine mix (StemCell Technologies) with or without TKI as indicated in each experiment. Plates were incubated at 37° C. in a 5% CO2 humidified incubator for 14 days. Colony forming units of granulocyte-macrophage (CFU-GM) were counted on day 14 using an inverted microscope.
Following selection of transfected cells by cell sorting, methylcellulose colony assays were performed by plating in 0.9% methylcellulose (Stem Cell Technologies; M3234 for Ba/F3 BCR-ABL1 native and mutant lines; M3434 for Ba/F3 parental cells; H4230 for CML patient samples). mCherry-positive Ba/F3 cells (1.1×10^3 cells/plate) or GFP-positive primary CML CD34+ cells (1×10^3 cells/plate) were seeded per dish in duplicate. In the case of CML patient samples, cells were plated in the presence of 1× StemSpan CC100 cytokine cocktail (StemCell Technologies). All cells were plated with or without the indicated TKI in three or more independent experiments. Plates were incubated at 37° C. in a 5% CO2 humidified incubator. Colonies were counted 7-14 days later in an area of 50 μm2 per dish using an inverted microscope.

B1: CCmut3: modified Bcr-Abl coiled-coil domain (residues 1-72) with mutations C38A, K39E, S41R, L45D, E48R, Q60E (protein)
chain: MVDPVGFAEAWKAQFPDSEPPRMELRSVGDIEQELERAEARIRRDEQRVNQERFRMIYLETLLAKEKKSYDR
Consider B1, for which the “cell growth, in words” value is reported as “significant reduction compared to inhibition by imatinib” in experiment [1] and “considerably more pronounced reduction of growth than observed with IM” in experiment [1] (listed as CC^mut3). For the same molecule, the “reduction of cell proliferation/growth” value in experiment [1] (lentiviral CCmut3 vs EV, trypan blue exclusion) is reported as “more than 2 fold”. In addition, the entries for the “colony formation, in words” value in experiment [2] and in experiment [2] (listed as CC^mut3) were “equally effective in reducing colony number” and “reduced to similar degree”, respectively. Also, in experiment [2] (four newly diagnosed patient samples, day 14, normalized to EV), the “inhibition of colony formation” value was about 60%.
